± gives the half width of the 95% confidence interval.
Legend:
[1] = folding stability dG unfold from trypsin proteolysis; higher = more stable
Summary of the method: (§1)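 How resistant each design was to proteolysis was captured as K50, inferred by Bayesian fitting of sequencing counts. Unfolding free energy was then derived relative to a sequence-predicted unfolded-state K50 and a shared folded-state K50, per protease or combined. Digestion used trypsin and chymotrypsin at 11 threefold-diluted concentrations plus a no-protease condition, on mini-proteins under 80 residues without cysteine in a PA-tagged cDNA display construct. Designs were kept only when AlphaFold2 dimer inter-PAE was above 15.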

[2] = folding stability dG unfold (combined trypsin and chymotrypsin); higher = more stable
Summary of the method: as §1

[3] = folding stability dG unfold from chymotrypsin proteolysis; higher = more stable
Summary of the method: as §1

Sequence | folding stability dG unfold [1] | folding stability dG unfold [2] | folding stability dG unfold [3]
SAGGSAGGSAGGKKTITVPVKIEEVDGKFRITLPDGKVIEFPPGAKVEEKDGLLTIELESAGGSAGGSAGGS [r10_305_TrROS_Hall] | 0.932 ± 0.025 kcal/mol | 1.14 ± 0.11 kcal/mol | 1.13 ± 0.078 kcal/mol
SAGGSAGGSAGMTPEEEVEYEIEVPDPNSDNLKTKIKLKFPVGTPEEEIKKKAEELAKKLSAGGSAGGSAGG [r11_516_JUSTAS] | 1.67 ± 0.11 kcal/mol | 1.73 ± 0.19 kcal/mol | 1.67 ± 0.093 kcal/mol
SASSMSLSFSVSLETDPEKGLLSTVTTTSTVTPYPDSVVTTTTVTTTVTPVPPGPPVVSPSATPVVALSSAG [r14_435_JUSTAS] | 1.47 ± 0.04 kcal/mol | 1.13 ± 0.051 kcal/mol | 0.593 ± 0.098 kcal/mol
SAGGSAGGSAGGYIEIVFAHPDPEPGYKYAMVMEIQMDPPGNMEMNIRVIKDPEDAKEAFSAGGSAGGSAGG [r11_792_TrROS] | 1.35 ± 0.12 kcal/mol | 1.41 ± 0.19 kcal/mol | 1.43 ± 0.067 kcal/mol
FKFKITELSFNPEWGYIHFNVKVEGPDGQPQTFPIMIRIRIPPPPPPPPPPMRADPDGKVRNPDDGKEHDAS [r1_270_TrROS] | 3.3 ± 0.1 kcal/mol | 4.26 ± 0.63 kcal/mol | 4.9 ± 0.27 kcal/mol
SAGGGMNISVDPNQSVTIPVTRIENGVPVETTVTISLPAGSTISPEGDNIIINYPHTGQTITLPTTLISAGG [r13_275_JUSTAS] | 1.36 ± 0.043 kcal/mol | 0.862 ± 0.041 kcal/mol | -0.174 ± 0.1 kcal/mol
SAGGMPKTITVERTLDVDPAVLASTTPEELVARVVEELRAEGVPISSVDPQTITRGATTVTVRVTLLESAGG [r13_432_JUSTAS] | 1.662 ± 0.014 kcal/mol | 2.08 ± 0.029 kcal/mol | 2.322 ± 0.023 kcal/mol
SPKITIDVETNKNGRGYIRFKFNGREREIRIPSNMTPEGAKEKARDIANTLQKRYQENGRPLKIEEIEIYSA [r9_751_TrROS] | 1.49 ± 0.089 kcal/mol | 1.36 ± 0.17 kcal/mol | 1.47 ± 0.13 kcal/mol
SALTLEELEKRYPELPSELLEKIKEEAEKVPKDRTLTFLLTAPDGRRVRITVTKPDTVTVTVLPPGVPEASA [r9_1024_JUSTAS] | 4.13 ± 0.3 kcal/mol | 4.14 ± 0.14 kcal/mol | 4.12 ± 0.094 kcal/mol
SAGGSAGGSWFIRVEYKRPNGQPKTLQIPVPRDQLKKMSIDEIKDRAENLGLPPNVKIEWYPFSAGGSAGGS [r12_742_TrROS] | 1.04 ± 0.032 kcal/mol | 1.55 ± 0.056 kcal/mol | 1.78 ± 0.061 kcal/mol
SAGGGRARLIELKEARFNPETGVLELTALVEFPEIGTLVVFRIRVPLEGEPRIEIEVEVYPIKPGEASAGGS [r16_207_TrMRF] | 3.17 ± 0.07 kcal/mol | 4 ± 0.091 kcal/mol | 4.31 ± 0.056 kcal/mol
SAGGSAGGSAKKPKKFKITKISTVKNKNGKTYYKLVIEDEKTKKKYVFVFPKNKEEILKALSAGGSAGGSAG [r3_57_TrROS_Hall] | 2 ± 0.061 kcal/mol | 2.45 ± 0.15 kcal/mol | 2.53 ± 0.062 kcal/mol
SAGGSAGGSMEELPEGAELIREEDGVAVVRNENGELLVVRRVDGKLEVRRFPPGMSIEEALAKSAGGSAGGS [r12_605_TrROS_Hall] | 2.95 ± 0.064 kcal/mol | 3.05 ± 0.045 kcal/mol | 3.07 ± 0.04 kcal/mol
SAGGSAGGSAGGSMKIEIVTNDPKKAEEIKEKLEKEGYPKKKNPINIEVKEISEEELLKSAGGSAGGSAGGS [r4_281_JUSTAS] | -0.113 ± 0.085 kcal/mol | 0.533 ± 0.16 kcal/mol | 0.628 ± 0.053 kcal/mol
SMIEELSDEEKVALAKELAEEIKKAREGGKPEEIPELIKRLKEVLEAASPPVQEEVLALIKEIKIPPKELSA [r9_182_JUSTAS] | 2.82 ± 0.065 kcal/mol | 2.23 ± 0.076 kcal/mol | 1.7 ± 0.04 kcal/mol
SMKPGEKLEIEVEIKVEEEDEEKRKKALEEAEEKLRELFEKLGLKDIKKVEVVEVEKLPDGTVKVKIRIDSA [r9_754_TrROS_Hall] | 2.39 ± 0.18 kcal/mol | 1.71 ± 0.24 kcal/mol | 1.32 ± 0.11 kcal/mol
SAGGSAGGSKIKIYPYSTKGKNEVYYLIETENNYLYIKVTIYYDPKTGKPVKIEIKEIFTLPKSAGGSAGGS [r12_70_TrMRF] | 2.44 ± 0.09 kcal/mol | 2.57 ± 0.26 kcal/mol | 3.07 ± 0.12 kcal/mol
SAGGSAGGSMPFIKVKVRFIEPNGIERTFEIELPEDKNLDEAIKLAPLFAKNGLPVEIEEVEGSAGGSAGGS [r12_804_TrMRF] | 0.758 ± 0.089 kcal/mol | 0.466 ± 0.18 kcal/mol | 0.0494 ± 0.44 kcal/mol
MTLLIPLPPAFPDLTPEQVLDLLRELFLSPDEEATAEENPETGSVTVTVRRGDEEYVFTFYPDGYLVLEPGS [r1_131_TrMRF] | 2.85 ± 0.04 kcal/mol | 2.83 ± 0.04 kcal/mol | 2.799 ± 0.016 kcal/mol
SAGGSKKKIYKIKIKIEVINEETGEKKTVEIEIEAESLEEALAAIAKALLPEGQTVKIVDIEIEEVSAGGSA [r2_320_TrROS_Hall] | 3.42 ± 0.069 kcal/mol | 3.73 ± 0.085 kcal/mol | 3.89 ± 0.079 kcal/mol
MTKKTVTLPIPEPIRAAIEAGKPLPLEEIVDLVRDVVAKELGFKDVKVLSVEIKPLPNGEIVVEVTVEFPES [r1_290_TrMRF] | 3.09 ± 0.28 kcal/mol | 2.89 ± 0.23 kcal/mol | 2.79 ± 0.16 kcal/mol

Sequence | folding stability dG unfold [1] | folding stability dG unfold [2] | folding stability dG unfold [3]
SAGGENYTFEMEITIPIPLPNPNGKLKKLPIKVPIEYEYDDPAQRNQAMQNMIMRIIDLALKELGVPSAGGS [r16_339_TrROS] | 1.46 ± 0.048 kcal/mol | 1.9 ± 0.16 kcal/mol | 2.12 ± 0.04 kcal/mol
SAGGSAGGMYVKIKVTMTADELKKLFPNIKKGEKVTVELVIKVEKAPPVKVEKKKEKKVEVKLKSAGGSAGG [r6_211_TrROS_Hall] | 0.661 ± 0.062 kcal/mol | 1.74 ± 0.14 kcal/mol | 2.21 ± 0.041 kcal/mol
SAGGSAGGSAKYILITAPKDNEEKVLEIAEELEKKYGVKLHKVERLPDGTVKALVEIFAPEKSAGGSAGGSA [r18_351_TrMRF] | 0.057 ± 0.073 kcal/mol | 0.438 ± 0.14 kcal/mol | 0.674 ± 0.17 kcal/mol
SAGGSAGGSWIILIHWPNGKEIPIFFKSPEEANEIAEEIKKIFQEKGMEPVSVEIYPIKPGQMSAGGSAGGS [r12_301_TrROS] | 2.47 ± 0.086 kcal/mol | 2.32 ± 0.21 kcal/mol | 2.26 ± 0.071 kcal/mol
SKFDPDDPGQPVRFTVMIPVPEDAMKNGDLEEVRDKVEEAADMFRPHGMEVKDIEVPPEQGWVMVKFEMPSA [r9_75_TrROS] | -0.824 ± 0.34 kcal/mol | -0.0605 ± 0.65 kcal/mol | -0.222 ± 0.43 kcal/mol
SAGGSAGGSAGSEIAEAIKKALEEAGVKEVKIEKVGPEPNVFRITFENGETIEITLPEDLSAGGSAGGSAGG [r11_765_TrROS_Hall] | 2.28 ± 0.15 kcal/mol | 2.21 ± 0.1 kcal/mol | 2.19 ± 0.037 kcal/mol
SAGGSAGGSSPPLEILDPVSATLPDGGTLTVAKAAGSYYLVTTTTYDPATGTATSTTTVVPLESAGGSAGGS [r20_15_JUSTAS] | 0.0164 ± 0.088 kcal/mol | 0.528 ± 0.065 kcal/mol | 0.827 ± 0.076 kcal/mol
SAGGMVNLRLYNPATGEPIDFPVPKDVVEEMLKNGDLAALEALFPGFPIAKVEVDEGEEVPAVPPDEASAGG [r13_629_TrMRF] | 0.776 ± 0.032 kcal/mol | 0.462 ± 0.14 kcal/mol | 0.0323 ± 0.15 kcal/mol
SEETLRILIRDPATGELREIEVRAGETVTVTFPDGSTVTLRITVVAAPPPPPKTVTLDPNETVEEGETVLSA [r9_467_TrROS_Hall] | 2.24 ± 0.084 kcal/mol | 2.1 ± 0.092 kcal/mol | 1.9 ± 0.038 kcal/mol
SAGGMFKVYEVTGKDAKVTIVEAPLPDGGKLVVVEVWEGGKPVKPFLVPVAELEEIAKAIGIKPEELKSAGG [r13_108_TrMRF] | 1.05 ± 0.027 kcal/mol | 1.58 ± 0.14 kcal/mol | 1.9 ± 0.082 kcal/mol
SAGGSAGGSAGGGRMLLTETETIFSPSGGESVVTRLVTVFRPPPPVFLPDPEGRWSELVSAGGSAGGSAGGS [r10_330_JUSTAS] | 0.999 ± 0.14 kcal/mol | 0.856 ± 0.22 kcal/mol | 0.769 ± 0.3 kcal/mol
SAGNITIEWEEYEDYRVIKITIPYKSPQQAPEEIESIIRKLGFPPNMKIEDIEVDPEEGHVEITIYIKSAGG [r19_186_TrROS] | 3.85 ± 0.12 kcal/mol | 4.47 ± 0.085 kcal/mol | 4.65 ± 0.083 kcal/mol
SAGGSAGGSAGGKKTYVKKIVTEKKKVKLFFYDKKTGELLEEKEVEVIKTKIYVTKPDEFSAGGSAGGSAGG [r7_573_TrMRF] | 0.479 ± 0.13 kcal/mol | 0.868 ± 0.26 kcal/mol | 0.884 ± 0.31 kcal/mol
SAGGSAGGSAGGMEIEKNENGELIIKFKSKEEAEKAIEELKKKGYKVELNEDGYLIIKPSAGGSAGGSAGGS [r10_1027_TrROS_Hall] | 3.34 ± 0.16 kcal/mol | 3.96 ± 0.13 kcal/mol | 4.07 ± 0.14 kcal/mol
SAGGSAGGSAGGSMIIRIETKDGKIIEIEIKEDEDKTPEEIAKELAKKYNIKKIEIFEPSAGGSAGGSAGGS [r4_116_TrROS_Hall] | 3.27 ± 0.12 kcal/mol | 3.44 ± 0.096 kcal/mol | 3.57 ± 0.062 kcal/mol
SAGGSAAEPVVLVFKTPESEALITVPPAFVQRVTVDPGGTVRRITVDLPDGTRTFLITDDSIFVDDSAGGSA [r15_598_TrMRF] | 0.753 ± 0.048 kcal/mol | 0.709 ± 0.068 kcal/mol | 0.581 ± 0.12 kcal/mol
SAGMKPGEKVKVTLTLTETRVEEVDGEKKVEKRTLTIEVTVEVSEEDREKALEEAEELARKLAEEGLIPSAG [r5_532_TrROS_Hall] | 1.21 ± 0.15 kcal/mol | 1.31 ± 0.28 kcal/mol | 1.24 ± 0.07 kcal/mol
SAGGSAGGSMYRVRIKVRNRETGEWLEIELEVPEGVTEEELKAALRELFPDAEIVDIEIEKLPSAGGSAGGS [r12_738_TrROS_Hall] | 3.68 ± 0.14 kcal/mol | 4.12 ± 0.2 kcal/mol | 4.34 ± 0.11 kcal/mol
SAGGSAGGSAPDVEVEPFTLPSGEEAVAFRLPDGSRVVLVGDKAVLFYKDGKVEEVPLEEILSAGGSAGGSA [r18_379_TrMRF] | 1.46 ± 0.042 kcal/mol | 1.76 ± 0.13 kcal/mol | 1.78 ± 0.1 kcal/mol
SAGGSAGGSWKIVEIEVQRFPDGMYMVEIRFPDHGMPVTVHIDPPKNKITIYFPNGRSIEIPFSAGGSAGGS [r12_88_TrROS] | 3.26 ± 0.11 kcal/mol | 3.99 ± 0.12 kcal/mol | 4.22 ± 0.089 kcal/mol
SAKLTLEIEVNGKKYKAEITSVDEETGTVTIKVTFPDGSTQTLTLTFPPAPPPKVEKVYVVDKDGKLLKSAG [r14_466_TrROS_Hall] | 0.644 ± 0.025 kcal/mol | 1.45 ± 0.12 kcal/mol | 1.83 ± 0.089 kcal/mol
